{"source": "patent US11358997", "target": "mouse leptin receptor on Ba/F3-mLR cells (mouse) (UniProt P48356)", "sequence (P48356 22-1162)": "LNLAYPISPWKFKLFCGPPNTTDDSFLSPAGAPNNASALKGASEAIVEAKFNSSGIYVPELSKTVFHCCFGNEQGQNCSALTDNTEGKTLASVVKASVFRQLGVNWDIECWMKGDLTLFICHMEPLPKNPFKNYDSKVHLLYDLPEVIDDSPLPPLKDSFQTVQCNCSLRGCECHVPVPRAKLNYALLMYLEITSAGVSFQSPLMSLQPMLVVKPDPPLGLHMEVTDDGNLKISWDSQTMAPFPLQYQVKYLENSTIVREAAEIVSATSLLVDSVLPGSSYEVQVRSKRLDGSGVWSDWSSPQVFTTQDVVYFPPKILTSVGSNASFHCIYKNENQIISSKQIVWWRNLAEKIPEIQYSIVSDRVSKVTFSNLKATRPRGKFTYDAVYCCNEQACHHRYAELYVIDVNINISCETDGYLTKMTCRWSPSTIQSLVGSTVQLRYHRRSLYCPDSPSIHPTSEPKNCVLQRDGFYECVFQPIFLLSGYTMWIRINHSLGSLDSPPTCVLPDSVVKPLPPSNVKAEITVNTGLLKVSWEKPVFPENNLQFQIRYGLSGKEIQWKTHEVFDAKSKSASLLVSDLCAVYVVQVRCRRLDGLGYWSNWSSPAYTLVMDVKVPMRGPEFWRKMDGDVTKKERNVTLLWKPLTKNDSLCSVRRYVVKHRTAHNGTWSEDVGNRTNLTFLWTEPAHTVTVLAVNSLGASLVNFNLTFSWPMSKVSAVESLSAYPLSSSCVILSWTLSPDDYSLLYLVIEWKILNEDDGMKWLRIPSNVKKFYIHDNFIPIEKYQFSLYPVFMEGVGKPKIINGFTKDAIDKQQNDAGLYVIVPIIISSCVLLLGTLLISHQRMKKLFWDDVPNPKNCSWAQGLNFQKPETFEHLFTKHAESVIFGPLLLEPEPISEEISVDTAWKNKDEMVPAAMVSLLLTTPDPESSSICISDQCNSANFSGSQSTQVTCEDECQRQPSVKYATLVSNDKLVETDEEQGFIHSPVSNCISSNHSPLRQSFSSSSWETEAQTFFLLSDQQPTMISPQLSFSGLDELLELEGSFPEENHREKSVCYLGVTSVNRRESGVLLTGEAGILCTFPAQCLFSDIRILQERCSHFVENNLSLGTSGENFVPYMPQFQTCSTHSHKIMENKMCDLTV", "assay": "cell-based or functional assay", "data": [{"substance": "scTNF WT-6xGGS-mLeptin L86N-FLAG (from UniProt P01375 77-233; P01375 80-233; P01375 80-233; P41160 22-167)", "values": [{"measurement": "induction of proliferation of Ba/F3-mLR cells (XTT assay, 4 days) (times less potent)", "value": 10}]}, {"substance": "scTNF WT-6xGGS-mLeptin L86S-FLAG (from UniProt P01375 77-233; P01375 80-233; P01375 80-233; P41160 22-167)", "values": [{"measurement": "induction of proliferation of Ba/F3-mLR cells (XTT assay, 4 days) (times less potent)", "value": 3}]}]}
